In the RNAGym collection of RNA variant scans (doi:10.1073/pnas.2313332121):
Variants at the floor of the assay were thinned out.

B1: TPR 5TU (parent)
chain: GGAUCUUCUCGAUCUAACAAAAAAGACAAAUCUGCCACAAAGCUUGAGAGCAUCUUCGGAUGCAGAGGCGGCAGCCUUCGGUGGCGCGAUAGCGCCAACGUUCUCAACUAUGACACGCAAAACGCGUGCUCCGUUGAAUGGAGUUUAUCAUG

Variants of: B1
Assay: polymerase ribozyme fitness, log enrichment relative to wild type (log ratio); higher = more active; in vitro selection for triplet polymerase activity
How it was run: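 Fitness is a logarithmic measure of how a genotype enriched relative to the wild type, with replicate averages weighted by inverse variance. The logarithm uses base 2, and enrichment came from Illumina sequencing of input and output libraries. Those libraries were PCR-built, transcribed mutants of each subunit of a heterodimeric triplet polymerase ribozyme, passed through one triplicate in vitro selection round that included frozen incubation at −7 °C, gel excision of extended constructs and streptavidin-bead capture. Genotypes were kept only if they had ≥10 input reads and ≥1 read per output.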

Row | Variant | polymerase ribozyme fitness (log ratio)
1 | U4G C93U | -0.624
2 | A3U C76U G124C G141C | -3.96
3 | U4G G84A C87U A106C G141A U144G | ≤ -4.2
4 | U4A G11A A26C A60G G84U G126U C149G | ≤ -4.2
5 | A3U C85U C96U C108G G140C | ≤ -4.2
6 | A3U G84A G94A A98C G124A | -0.883
7 | A3U G70A A89C U139C U144A | ≤ -4.2
8 | A3U C51A G124C | -2.87
9 | U4C C14A C93G | ≤ -4.2
10 | U4A C5G C8G U9G U53A C54A C72A C79A C85U A115C U139A G140C | ≤ -4.2
11 | U4G U13G A30C U31A G50U C95U C103A C105U | ≤ -4.2
12 | A3U G81C | -0.0386
13 | A3U G59U U82A C93A A142C | ≤ -4.2
14 | U4A C8A A20U A29C A40G G70C U101A A120U | ≤ -4.2
15 | A3U C5A U15C A19G C57G C118G G136A G141C A142C | ≤ -4.2
16 | A3U C36U G67U C95A | ≤ -4.2
17 | U4A A23U C35U G46A G84U C103U U139A | ≤ -4.2
18 | A3U C8U C14G A19C U33A A52C G70A C79G C87G G152U | ≤ -4.2
19 | U4G A24U G62U C87U A89U | -3.44
20 | U4G C38U G58A C95U C96U U127C | -3.54
21 | U4C C35U A47C U78G G136C | ≤ -4.2

Row | Variant | polymerase ribozyme fitness (log ratio)
22 | U4C G11A C57A C96U G124A A150C | ≤ -4.2
23 | U4C C35G C96U | ≤ -4.2
24 | A3U U15G C51A G84U U151G | ≤ -4.2
25 | U4C G94C C116G | -0.818
26 | U4C U53A G92C C114A A120G | ≤ -4.2
27 | A3U U82C U101A | -0.128
28 | U4C A28G C38U C69U C87G G133A | ≤ -4.2
29 | A3U C18U A20C A30C A41C C69U G94A C103G | ≤ -4.2
30 | U4G A20U C93G U109A A138G | ≤ -4.2
31 | U4C G48A | -1.42
32 | U4A A39C U53A C96U C108U A120U C125U | ≤ -4.2
33 | U4A C85U | -1.53
34 | A3U G59C C85U G126A | -0.686
35 | A3U C96G | -1.47
36 | A3U C96A | -0.199
37 | U4G A41C G48C A60U A97G A107U | ≤ -4.2
38 | U4A C43G | ≤ -4.2
39 | U4A C18U A64C G68A C79G | ≤ -4.2
40 | U4A U6A A28U A30G U44A G59C A60G C87U A89U A97C A107U | ≤ -4.2
41 | A3U U82G U104G | -1.04
42 | U4G A17U C51U A52U C57A C75G G83U G117U G136U | ≤ -4.2

Row | Variant | polymerase ribozyme fitness (log ratio)
43 | U4G A40C A137G | -1.84
44 | U4A A41C G126C | -1.9
45 | U4C G11A G68A C72A G83U C93G G140A U148C | ≤ -4.2
46 | U4C C5G A20U | -1.25
47 | A3U U31C C57U G86A | -1.99
48 | U4A C5G A22U G25U A30U C63U A66C G143U | ≤ -4.2
49 | U4C A20G C85A A98C A115G | -2.8
50 | U4C U31C C76G C116G | ≤ -4.2
51 | U4G C27U A97U | -2.22
52 | A3U G46A G50U U56A G74A G84U U130A U144C C149U | ≤ -4.2
53 | U4A A19C A41U U56C G124A G143A | -3.84
54 | U4C C10U A20C A29U A52C A138C G140U | ≤ -4.2
55 | U4G G84A U109A A115C C123A | -2.01
56 | U4G A24G A47C C51A C54A C76G U82G G86U A115G | ≤ -4.2
57 | A3U C5G U7C A30C C36U U55A A60G C75U C87G U101A A119C C123G G143U | ≤ -4.2
58 | U4G C8U U56A G84A | -1.05
59 | A3U G48A A89G C95A U102G | ≤ -4.2
60 | U4C U7G C27U U31A G68U G88U | ≤ -4.2
61 | U4A U45A C57U A91C | ≤ -4.2
62 | A3U U53A U82C C87G C96U C125G | ≤ -4.2
63 | U4A C18U C79G A91U A142C U148C | ≤ -4.2

Row | Variant | polymerase ribozyme fitness (log ratio)
64 | U4C U55A | -0.767
65 | U4G G11U A40U U55A A98U | -3.1
66 | U4G A40C A49G C96A | -3.02
67 | U4G A29C C75A C96U A115U U148A | -3.99
68 | A3U C38A C85G C99U G124A | -3.77
69 | U4A A20G C35A U55G C72U C99U A120U U146A | ≤ -4.2
70 | U4A C5G C69U C79U C85U G94C G117A G128U | ≤ -4.2
71 | U4G U9A C35A G48C U134G | ≤ -4.2
72 | U4C G11U A49G U61A G80C A98G G141A | ≤ -4.2
73 | U4C A23G C85U A98U G117A A119U G141U | ≤ -4.2
74 | U4C C18U G48U A49C G68U G74A C76A G88U C116G | ≤ -4.2
75 | U4A G25U C35U C87A C93G | ≤ -4.2
76 | U4G A23C C79A G92C G100A | ≤ -4.2
77 | U4C A12U C57G C85U A98G G128U | ≤ -4.2
78 | U4C C10A A12U U53A G88C C96A | ≤ -4.2
79 | A3U U7G C87A A91G C103U U135C | ≤ -4.2
80 | U4C A12C A24U C27G A28G U44A G88A C116U G143A | ≤ -4.2
81 | U4C C51U C76U G94A | -1.51
82 | A3U C14U A40U A52U G84A G112C | ≤ -4.2
83 | U4C C5G C32A A40C U82C A98G C103U A113C A150C | ≤ -4.2
